Here are results for two molecules from patent publication US7018812 (DUKE UNIVERSITY, dated 2006).

Bridges are numbered along the chain shown (N, C = ends). Where no end group is shown, it is not given here.

Assay [1] concerns the target β2AR-V2R chimera (Homo sapiens (Human)) (UniProt P07550). The assay is described as follows: cell-based or functional assay.
Assay [2] deals with wild-type β2AR receptor (β2-adrenergic receptor), HA-tagged (Homo sapiens (Human)) (UniProt P07550). The assay is described as follows: cell-based or functional assay.
Assay [3] has as its target wild-type V2R receptor (vasopressin V2 receptor), HA-tagged (human) (UniProt P30518). The assay is described as follows: cell-based or functional assay.
In assay [4] the target is T1, V2R-β2AR chimera (human).
T1 construct: Whole receptor on HEK-293 cells; also called V2-β2AR; V2R-p2AR
T1 chain: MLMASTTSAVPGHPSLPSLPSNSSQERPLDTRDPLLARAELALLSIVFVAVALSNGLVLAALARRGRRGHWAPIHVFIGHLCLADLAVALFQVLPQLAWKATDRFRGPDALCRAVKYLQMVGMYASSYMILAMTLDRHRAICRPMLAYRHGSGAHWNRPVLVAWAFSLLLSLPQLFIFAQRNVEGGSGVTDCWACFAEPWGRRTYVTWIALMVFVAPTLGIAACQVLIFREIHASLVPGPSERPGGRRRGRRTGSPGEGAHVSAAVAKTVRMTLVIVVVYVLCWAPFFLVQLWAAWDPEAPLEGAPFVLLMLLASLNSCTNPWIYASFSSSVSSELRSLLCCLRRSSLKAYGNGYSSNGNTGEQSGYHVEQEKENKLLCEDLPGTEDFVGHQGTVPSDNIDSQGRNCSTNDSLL
The assay is described as follows: cell-based or functional assay.

Assay [5] deals with T1, V2R-β2AR chimera. Kind of assay: [3H]AVP binding to membrane proteins of transfected HEK-293 cells; affinity not given. The protocol:
Membrane proteins (10 μg) from transfected HEK-293 cells expressing the V2R and V2R-β_2AR chimera were incubated in PBS containing 2% BSA at room temperature with increasing concentrations of [^3H] […] Binding was terminated by rapid filtration and consecutive washes with ice-cold wash buffer ([…], 50 mM Tris-HCl, pH=7.2).

Setting [6] is: scale: % of Vmax measured under Naive conditions.

In assay [1], β-arrestin displayed a change in receptor phosphorylation 60 min after agonist removal (32P, immunoprecipitation) of 12 % increase. Moreover, the impairment of recovery of Vmax of adenylyl cyclase activity one hour after agonist removal (resensitization) came out at 66% in assay [1] and 54% in assay [3]. Further, the internalized receptor recycled back to the plasma membrane 60 min after agonist removal (flow cytometry) stood at 11% in assay [1], 65% in assay [2], 23% in assay [3] and 89% with V2R-β2AR chimera [4]. The figures for the reduction in receptor phosphorylation 60 min after agonist removal (32P, immunoprecipitation) (in assay [2]; in assay [3]; in the assay with V2R-β2AR chimera [4]) were 48 % reduction, 3 % decrease and 67 % reduction, respectively. Besides, the recovery of Vmax of adenylyl cyclase activity one hour after agonist removal (resensitization) in assay [2] (setting [6]) is 100; with V2R-β2AR chimera [4] (setting [6]), 102.

B1: arginine vasopressin (peptide, UniProt P01185 20-28, looked up)
peptide: CYFQNCPRG-NH2
modifications: disulfide 1-6 (inferred); ends not checked; also: tritium label ([3H]AVP), place not given here
notes: mature; only the hormone peptide stood in the assay; also called AVP; [3H]AVP
Turning to B1, the binding result in the assay with V2R-β2AR chimera [5] is “binds”.
